The chains are these.
B1: Autism susceptibility gene 2 protein homolog (Mus musculus), A0A087WPF7 (parent)
chain: MDGPTRGHGLRKKRRSRSQRDRERRSRAGLGTGAAGGIGAGRTRAPSLASSSGSDKEDNGKPPSSAPSRPRPPRRKRRESTSAEEDIIDGFAMTSFVTFEALEKDVAVKPQERAEKRQTPLTKKKREALTNGLSFHSKKSRLSHSHHYSSDRENDRNLCQHLGKRKKMPKGLRQLKPGQNSCRDSDSESASGESKGFQRSSSRERLSDSSAPSSLGTGYFCDSDSDQEEKASDASSEKLFNTVLVNKDPELGVGALPEHNQDAGPIVPKISGLERSQEKSQDCCKEPVFEPVVLKDPHPQLPQLPSQAQAEPQLQIPSPGPDLVPRTEAPPQFPPPSTQPAQGPPEAQLQPAPLPQVQQRPPRPQSPSHLLQQTLPPVQSHPSSQSLSQPLSAYNSSSLSLNSLSSRSSTPAKTQPAPPHISHHPSASPFPLSLPNHSPLHSFTPTLQPPAHSHHPNMFAPPTALPPPPPLTSGSLQVPGHPAGSTYSEQDILRQELNTRFLASQSADRGASLGPPPYLRTEFHQHQHQHQHTHQHTHQHTFTPFPHAIPPTAIMPTPAPPMFDKYPTKVDPFYRHSLFHSYPPAVSGIPPMIPPTGPFGSLQGAFQPKTSNPIDVAARPGTVPHTLLQKDPRLTDPFRPMLRKPGKWCAMHVHIAWQIYHHQQKVKKQMQSDPHKLDFGLKPEFLSRPPGPSLFGAIHHPHDLARPSTLFSAAGAAHPTGTPFGPPPHHSNFLNPAAHLEPFNRPSTFTGLAAVGGNAFGGLGNPSVTPNSVFGHKDSPSVQNFSNPHEPWNRLHRTPPSFPTPPPWLKPGELERSASAAAHDRDRDVDKRDSSVSKDDKERESVEKRHPSHPSPAPPVPVSALGHNRSSTDPTTRGHLNTEAREKDKPKEKERDHSGSRKDLTTEEHKAKESHLPERDGHSHEGRAAGEEPKQLSRVPSPYVRTPGVDSTRPNSTSSREAEPRKGEPAYENPKKNAEVKVKEERKEDHDLPTEAPQAHRTSEAPPPSSSASASVHPGPLASMPMTVGVTGIHAMNSIGSLDRTRMVTPFMGLSPIPGGERFPYPSFHWDPMRDPLRDPYRDLDMHRRDPLGRDFLLRNDPLHRLSTPRLYEADRSFRDREPHDYSHHHHHHHHPLAVDPRREHERGGHLDERERLHVLREDYEHPRLHPVHPASLDGHLPHPSLLTPGLPSMHYPRISPTAGHQNGLLNKTPPTAALSAPPPLISTLGGRPGSPRRTTPLSAEIRERPPSHTLKDIEAR
B2: Autism susceptibility gene 2 protein (Homo sapiens), Q8WXX7 (parent)
chain: MDGPTRGHGLRKKRRSRSQRDRERRSRGGLGAGAAGGGGAGRTRALSLASSSGSDKEDNGKPPSSAPSRPRPPRRKRRESTSAEEDIIDGFAMTSFVTFEALEKDVALKPQERVEKRQTPLTKKKREALTNGLSFHSKKSRLSHPHHYSSDRENDRNLCQHLGKRKKMPKALRQLKPGQNSCRDSDSESASGESKGFHRSSSRERLSDSSAPSSLGTGYFCDSDSDQEEKASDASSEKLFNTVIVNKDPELGVGTLPEHDSQDAGPIVPKISGLERSQEKSQDCCKEPIFEPVVLKDPCPQVAQPIPQPQTEPQLRAPSPDPDLVQRTEAPPQPPPLSTQPPQGPPEAQLQPAPQPQVQRPPRPQSPTQLLHQNLPPVQAHPSAQSLSQPLSAYNSSSLSLNSLSSSRSSTPAKTQPAPPHISHHPSASPFPLSLPNHSPLHSFTPTLQPPAHSHHPNMFAPPTALPPPPPLTSGSLQVAGHPAGSTYSEQDILRQELNTRFLASQSADRGASLGPPPYLRTEFHQHQHQHQHTHQHTHQHTFTPFPHAIPPTAIMPTPAPPMFDKYPTKVDPFYRHSLFHSYPPAVSGIPPMIPPTGPFGSLQGAFQPKTSNPIDVAARPGTVPHTLLQKDPRLTDPFRPMLRKPGKWCAMHVHIAWQIYHHQQKVKKQMQSDPHKLDFGLKPEFLSRPPGPSLFGAIHHPHDLARPSTLFSAAGAAHPTGTPFGPPPHHSNFLNPAAHLEPFNRPSTFTGLAAVGGNAFGGLGNPSVTPNSMFGHKDGPSVQNFSNPHEPWNRLHRTPPSFPTPPPWLKPGELERSASAAAHDRDRDVDKRDSSVSKDDKERESVEKRHSSHPSPAPVLPVNALGHTRSSTEQIRAHLNTEAREKDKPKERERDHSESRKDLAADEHKAKEGHLPEKDGHGHEGRAAGEEAKQLARVPSPYVRTPVVESARPNSTSSREAEPRKGEPAYENPKKSSEVKVKEERKEDHDLPPEAPQTHRASEPPPPNSSSSVHPGPLASMPMTVGVTGIHPMNSISSLDRTRMMTPFMGISPLPGGERFPYPSFHWDPIRDPLRDPYRELDIHRRDPLGRDFLLRNDPLHRLSTPRLYEADRSFRDREPHDYSHHHHHHHHPLSVDPRREHERGGHLDERERLHMLREDYEHTRLHSVHPASLDGHLPHPSLITPGLPSMHYPRISPTAGNQNGLLNKTPPTAALSAPPPLISTLGGRPVSPRRTTPLSAEIRERPPSHTLKDIEAR

The variants in experiment [1] derive from B1. The note with it: with ep300_mouse Ep300, B2RWS6.
Chain of ep300_mouse Ep300, B2RWS6 (B2RWS6 whole entry): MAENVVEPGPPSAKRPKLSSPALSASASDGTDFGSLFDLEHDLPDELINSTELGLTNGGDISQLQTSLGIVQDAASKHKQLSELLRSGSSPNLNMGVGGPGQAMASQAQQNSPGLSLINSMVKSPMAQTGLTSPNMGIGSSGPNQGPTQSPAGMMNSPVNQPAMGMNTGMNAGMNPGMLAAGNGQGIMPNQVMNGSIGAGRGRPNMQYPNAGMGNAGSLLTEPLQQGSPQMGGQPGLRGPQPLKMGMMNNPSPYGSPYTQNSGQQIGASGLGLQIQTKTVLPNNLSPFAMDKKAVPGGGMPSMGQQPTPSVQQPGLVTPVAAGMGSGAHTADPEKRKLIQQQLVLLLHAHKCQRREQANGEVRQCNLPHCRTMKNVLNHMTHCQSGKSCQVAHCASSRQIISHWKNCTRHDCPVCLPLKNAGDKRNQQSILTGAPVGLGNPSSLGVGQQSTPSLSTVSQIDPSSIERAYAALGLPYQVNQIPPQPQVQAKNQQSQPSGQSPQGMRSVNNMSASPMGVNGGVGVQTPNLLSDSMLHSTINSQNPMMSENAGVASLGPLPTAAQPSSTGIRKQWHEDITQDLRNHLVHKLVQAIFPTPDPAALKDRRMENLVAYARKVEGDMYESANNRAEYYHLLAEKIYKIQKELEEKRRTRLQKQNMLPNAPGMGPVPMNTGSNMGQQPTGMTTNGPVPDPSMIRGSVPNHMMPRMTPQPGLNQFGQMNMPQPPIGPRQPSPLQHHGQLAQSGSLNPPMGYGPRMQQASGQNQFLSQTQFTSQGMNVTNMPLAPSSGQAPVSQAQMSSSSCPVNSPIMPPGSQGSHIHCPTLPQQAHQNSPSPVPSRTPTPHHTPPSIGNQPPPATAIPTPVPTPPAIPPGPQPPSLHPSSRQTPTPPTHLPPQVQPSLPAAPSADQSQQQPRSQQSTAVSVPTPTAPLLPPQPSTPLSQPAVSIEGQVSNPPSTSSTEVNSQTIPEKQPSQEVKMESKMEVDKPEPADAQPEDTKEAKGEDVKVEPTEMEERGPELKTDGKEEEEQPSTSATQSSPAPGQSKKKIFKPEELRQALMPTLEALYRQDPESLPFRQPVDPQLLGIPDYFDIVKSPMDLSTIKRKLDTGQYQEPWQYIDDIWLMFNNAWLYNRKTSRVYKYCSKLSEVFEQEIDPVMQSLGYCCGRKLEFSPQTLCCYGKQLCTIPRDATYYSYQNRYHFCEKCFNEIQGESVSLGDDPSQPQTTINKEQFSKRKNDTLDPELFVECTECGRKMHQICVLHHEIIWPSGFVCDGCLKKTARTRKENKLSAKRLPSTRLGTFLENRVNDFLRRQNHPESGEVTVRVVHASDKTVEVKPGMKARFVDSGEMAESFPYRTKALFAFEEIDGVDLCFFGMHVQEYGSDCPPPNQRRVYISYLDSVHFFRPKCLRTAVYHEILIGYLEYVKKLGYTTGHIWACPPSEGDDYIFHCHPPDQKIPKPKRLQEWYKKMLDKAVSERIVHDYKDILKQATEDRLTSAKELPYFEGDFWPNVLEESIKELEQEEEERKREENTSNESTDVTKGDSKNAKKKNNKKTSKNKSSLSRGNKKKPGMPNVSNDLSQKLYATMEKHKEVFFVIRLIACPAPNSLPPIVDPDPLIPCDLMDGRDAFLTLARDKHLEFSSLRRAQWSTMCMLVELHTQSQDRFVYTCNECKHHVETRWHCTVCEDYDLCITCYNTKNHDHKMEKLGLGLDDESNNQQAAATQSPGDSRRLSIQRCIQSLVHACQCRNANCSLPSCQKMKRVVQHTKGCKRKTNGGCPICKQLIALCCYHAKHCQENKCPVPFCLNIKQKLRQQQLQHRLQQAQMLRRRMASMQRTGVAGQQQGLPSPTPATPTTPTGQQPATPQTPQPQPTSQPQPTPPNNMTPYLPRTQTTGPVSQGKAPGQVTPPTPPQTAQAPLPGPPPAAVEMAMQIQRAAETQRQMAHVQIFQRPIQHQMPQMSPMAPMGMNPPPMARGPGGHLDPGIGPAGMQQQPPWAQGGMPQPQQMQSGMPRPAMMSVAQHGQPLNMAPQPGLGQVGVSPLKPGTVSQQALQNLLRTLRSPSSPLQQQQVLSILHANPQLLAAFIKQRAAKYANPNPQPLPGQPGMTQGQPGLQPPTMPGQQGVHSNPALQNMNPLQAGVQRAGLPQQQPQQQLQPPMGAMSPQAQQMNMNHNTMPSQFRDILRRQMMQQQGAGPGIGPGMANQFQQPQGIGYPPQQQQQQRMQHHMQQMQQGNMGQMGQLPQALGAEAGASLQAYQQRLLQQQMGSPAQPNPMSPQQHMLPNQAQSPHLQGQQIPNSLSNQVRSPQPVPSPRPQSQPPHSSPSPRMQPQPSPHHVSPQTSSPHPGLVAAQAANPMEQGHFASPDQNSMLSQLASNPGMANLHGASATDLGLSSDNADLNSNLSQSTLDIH
Variants of B1 are the subject of the experiment “ring2_mouse Rnf2, Q9CQJ4”. The note with it: with ring2_mouse Rnf2, Q9CQJ4.
The variants in experiment [2] derive from B1. The settings on record: with nf2l1_mouse Nfe2l1, Q61985.
Experiment [3] covers variants of B2. The note with it: with ep300_human EP300, Q09472.
Chain of ep300_human EP300, Q09472 (Q09472 whole entry): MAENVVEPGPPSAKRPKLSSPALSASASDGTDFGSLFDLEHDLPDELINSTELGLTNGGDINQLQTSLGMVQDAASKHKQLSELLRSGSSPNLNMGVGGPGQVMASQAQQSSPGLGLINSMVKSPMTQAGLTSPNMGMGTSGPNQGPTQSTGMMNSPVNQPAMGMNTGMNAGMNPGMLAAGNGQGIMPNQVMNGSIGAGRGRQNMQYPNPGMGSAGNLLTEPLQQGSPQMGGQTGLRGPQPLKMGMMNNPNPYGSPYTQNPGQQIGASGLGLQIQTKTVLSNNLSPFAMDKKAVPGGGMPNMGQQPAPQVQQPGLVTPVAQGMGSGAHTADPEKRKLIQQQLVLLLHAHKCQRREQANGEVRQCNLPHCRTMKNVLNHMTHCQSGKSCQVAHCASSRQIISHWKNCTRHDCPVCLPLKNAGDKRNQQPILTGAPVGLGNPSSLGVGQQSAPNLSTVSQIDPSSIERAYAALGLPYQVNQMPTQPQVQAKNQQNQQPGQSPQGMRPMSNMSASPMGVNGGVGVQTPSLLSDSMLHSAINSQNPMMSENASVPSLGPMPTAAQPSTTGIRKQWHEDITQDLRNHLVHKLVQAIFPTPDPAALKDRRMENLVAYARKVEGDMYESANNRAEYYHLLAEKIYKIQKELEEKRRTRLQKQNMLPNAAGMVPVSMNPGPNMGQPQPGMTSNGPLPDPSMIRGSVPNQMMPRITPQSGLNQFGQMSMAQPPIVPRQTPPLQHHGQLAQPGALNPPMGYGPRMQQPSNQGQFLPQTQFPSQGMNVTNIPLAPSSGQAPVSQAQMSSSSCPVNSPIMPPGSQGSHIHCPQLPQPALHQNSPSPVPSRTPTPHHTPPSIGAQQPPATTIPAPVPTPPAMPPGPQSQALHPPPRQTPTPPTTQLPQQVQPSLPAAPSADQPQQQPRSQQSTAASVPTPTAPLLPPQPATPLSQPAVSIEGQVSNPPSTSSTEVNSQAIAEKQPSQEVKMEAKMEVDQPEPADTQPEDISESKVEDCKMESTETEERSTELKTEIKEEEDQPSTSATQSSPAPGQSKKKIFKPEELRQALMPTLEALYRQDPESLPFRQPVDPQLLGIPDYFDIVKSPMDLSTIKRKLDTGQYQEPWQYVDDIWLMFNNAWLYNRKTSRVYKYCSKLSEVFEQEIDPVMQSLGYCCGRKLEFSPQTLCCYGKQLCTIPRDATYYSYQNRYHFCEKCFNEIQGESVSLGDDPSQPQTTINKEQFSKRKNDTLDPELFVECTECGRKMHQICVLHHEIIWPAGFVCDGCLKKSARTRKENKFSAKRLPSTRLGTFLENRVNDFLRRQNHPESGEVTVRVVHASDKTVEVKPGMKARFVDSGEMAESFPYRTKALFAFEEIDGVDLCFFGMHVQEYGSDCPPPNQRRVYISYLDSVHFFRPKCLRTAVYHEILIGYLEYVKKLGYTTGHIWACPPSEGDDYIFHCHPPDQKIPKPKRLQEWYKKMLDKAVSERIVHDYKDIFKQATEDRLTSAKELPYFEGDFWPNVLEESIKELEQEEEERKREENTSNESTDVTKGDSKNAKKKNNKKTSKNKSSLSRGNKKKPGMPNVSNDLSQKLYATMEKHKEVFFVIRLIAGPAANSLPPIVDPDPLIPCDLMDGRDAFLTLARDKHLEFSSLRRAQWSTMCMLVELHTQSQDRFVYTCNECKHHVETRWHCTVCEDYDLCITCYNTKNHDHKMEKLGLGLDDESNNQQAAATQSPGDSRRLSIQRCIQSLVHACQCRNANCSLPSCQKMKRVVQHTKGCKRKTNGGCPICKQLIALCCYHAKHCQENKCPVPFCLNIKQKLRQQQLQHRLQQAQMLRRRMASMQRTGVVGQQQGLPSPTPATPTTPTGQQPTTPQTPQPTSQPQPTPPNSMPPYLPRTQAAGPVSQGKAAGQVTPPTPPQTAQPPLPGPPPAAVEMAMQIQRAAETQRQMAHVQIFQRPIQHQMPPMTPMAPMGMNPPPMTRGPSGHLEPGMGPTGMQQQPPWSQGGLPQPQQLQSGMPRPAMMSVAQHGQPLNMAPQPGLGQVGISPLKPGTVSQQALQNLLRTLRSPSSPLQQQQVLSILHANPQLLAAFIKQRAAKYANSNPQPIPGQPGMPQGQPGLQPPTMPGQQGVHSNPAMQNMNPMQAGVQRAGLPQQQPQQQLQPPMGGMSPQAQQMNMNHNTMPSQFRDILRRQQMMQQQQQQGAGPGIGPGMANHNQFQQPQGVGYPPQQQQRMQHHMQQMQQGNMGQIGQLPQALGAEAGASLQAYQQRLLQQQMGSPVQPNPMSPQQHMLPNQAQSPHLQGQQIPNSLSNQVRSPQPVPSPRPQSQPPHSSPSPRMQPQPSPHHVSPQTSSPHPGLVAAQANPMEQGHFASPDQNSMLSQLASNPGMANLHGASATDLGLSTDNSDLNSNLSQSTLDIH
Variants of B2 are the subject of the experiment “ring2_human RNF2, Q99496”. The note with it: with ring2_human RNF2, Q99496.
Chain of ring2_human RNF2, Q99496 (Q99496 whole entry): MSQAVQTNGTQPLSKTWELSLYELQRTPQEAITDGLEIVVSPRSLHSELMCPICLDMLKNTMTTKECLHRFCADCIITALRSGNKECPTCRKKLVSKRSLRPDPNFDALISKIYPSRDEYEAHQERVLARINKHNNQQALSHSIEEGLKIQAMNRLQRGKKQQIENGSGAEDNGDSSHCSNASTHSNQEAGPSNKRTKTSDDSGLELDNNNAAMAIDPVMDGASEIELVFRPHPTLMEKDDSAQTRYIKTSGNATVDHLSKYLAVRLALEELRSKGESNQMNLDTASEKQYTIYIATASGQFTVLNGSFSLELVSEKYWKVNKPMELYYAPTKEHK
Variants of B2 are the subject of experiment [4]. The note with it: with ep300_human EP300, Q09472. This is another data set of the same source.

With T533P, the “effect of a mutation on the interaction” value is “disrupting interaction” in experiment [1]; “with no effect” with ring2_mouse Rnf2, Q9CQJ4; “with no effect” in experiment [2].
Consider P517L, for which the “effect of a mutation on the interaction” value is recorded as “decreasing interaction” in experiment [3]; “increasing interaction” with ring2_human RNF2, Q99496; “with no effect” in experiment [4].
With T534P, the “effect of a mutation on the interaction” value in experiment [3] is reported as “disrupting interaction”; with ring2_human RNF2, Q99496 it was “with no effect”.

Values taken from IntAct's records for PubMed 34637754.
